Our source for the response values is publication PMC12203963.

The chains are these.
B1: ALFA-tagged IRT1 (iron-regulated transporter 1), wildtype [Arabidopsis thaliana] / CIPK23 fused to the mCitC fragment [not stated] (parent)
chain 1: MASRTTPSRSTPSRSTPSGSSSGGRTRVGKYELGRTLGEGTFAKVKFARNVENGDNVAIKVIDKEKVLKNKMIAQIKREISTMKLIKHPNVIRMFEVMASKTKIYFVLEFVTGGELFDKISSNGRLKEDEARKYFQQLINAVDYCHSRGVYHRDLKPENLLLDANGALKVSDFGLSALPQQVREDGLLHTTCGTPNYVAPEVINNKGYDGAKADLWSCGVILFVLMAGYLPFEDSNLTSLYKKIFKAEFTCPPWFSASAKKLIKRILDPNPATRITFAEVIENEWFKKGYKAPKFENADVSLDDVDAIFDDSGESKNLVVERREEGLKTPVTMNAFELISTSQGLNLGSLFEKQMGLVKRKTRFTSKSSANEIVTKIEAAAAPMGFDVKTNNYKMKLTGEKSGRKGQLAVATEVFQVAPSLYMVEMRKSGGDTLEFHKFYKNLTTGLKDIVWKTIDEEKEEGTDGGGTNGAMANRTIAKQST
chain 2: ISPATSTAPEECGSESANPCVNKAKALPLKVIAIFVILIASMIGVGAPLFSRNVSFLQPDGNIFTIIKCFASGIILGTGFMHVLPDSFEMLSSICLEENPWHKFPFSGFLAMLSGLITLAIDSMATSLYTSKNAVGIMPHGHGHGHGPANDVTLPIKEDDSSNAQLLRYRVIAMVLELGIIVHSVVIGLSLGATSDTCTIKGLIAALCFHQMFEGMGLGGCILQAEYTNMKKFVMAFFFAVTTPFGIALGIALSTVYQDNSPKALITVGLLNACSAGLLIYMALVDLLAAEFMGPKLQGSIKMQFKCLIAALLGCGGMSIIAKWA

The variants in the assay derive from B1. As to the kind of experiment: trimolecular fluorescence complementation (TriFC). The following applies: with CIPK23 fused to the mCitC fragment; parent: 74; read off a plot.
Consider chain 2 H140A H142A D151Q, for which the response came out at 23.

In the case of chain 2 D151Q, the response came out at 67.

Turning to chain 2 H140A H142A, the response was 46.
